Patent US20170165337A1 (IMMATICS BIOTECHNOLOGIES, published 2017)

The binders below were run against T1, HLA-A*02:01 (human) (assay: UV peptide-exchange ELISA).
T1 construct: MHC class I monomer of the UV-ligand exchange assay; also called peptide-receptive MHC molecules; MHC class I
Excerpt: Candidate peptides for T cell based therapies according to the present invention were further tested for their MHC binding capacity (affinity). The individual peptide-MHC complexes were produced by UV-ligand exchange, where a UV-sensitive peptide is cleaved upon UV-irradiation, and exchanged with the peptide of interest as analyzed. Only peptide candidates that can effectively bind and stabilize the peptide-receptive MHC molecules prevent dissociation of the MHC complexes. To determine the yield of the exchange reaction, an ELISA was performed based on the detection of the light chain (β2m) of stabilized MHC complexes. The assay was performed as generally described in Rodenko et al. (Rodenko et al., 2006).
96 well MAXISorp plates (NUNC) were coated over night with 2 ug/ml streptavidin in PBS at room temperature, washed 4× and blocked forl h at 37° C. in 2% BSA containing blocking buffer. Refolded HLA-A*02:01/MLA-001 monomers served as standards, covering the range of 15-500 ng/ml. Peptide-MHC monomers of the UV-exchange reaction were diluted 100 fold in blocking buffer. Samples were incubated for 1 h at 37° C., washed four times, incubated with 2 ug/ml HRP conjugated anti-β2m for 1 h at 37° C., washed again and detected with TMB solution that is stopped with […]. Absorption was measured at 450 nm. Candidate peptides that show a high exchange yield (preferably higher than 50%, most preferred higher than 75%) are generally preferred for a generation and production of antibodies or fragments thereof, and/or T cell receptors or fragments thereof, as they show sufficient avidity to the MHC molecules and prevent dissociation of the MHC complexes.

**Q.** With ALWDPVIEL as the binder, how does the peptide exchange yield read?
**A.** 50 to 75%

**Q.** How did the peptide exchange yield turn out when AMNISVPQV was run?
**A.** 50 to 75%

**Q.** Which peptide exchange yield does the source give for FLAEASVMTQL here?
**A.** 50 to 75%

**Q.** Which peptide exchange yield does the source give for FLGGLSPGV here?
**A.** 50 to 75%

**Q.** How did the peptide exchange yield turn out when FLLNLQNCHL was run?
**A.** ≥ 75%

**Q.** Which peptide exchange yield does the source give for FLQDSKVIFV here?
**A.** 50 to 75%

**Q.** Which peptide exchange yield does the source give for FLYIRQLAI here?
**A.** 50 to 75%

**Q.** FMHQIIDQV was tested. Which peptide exchange yield did it give?
**A.** ≥ 75%

**Q.** GIIDINVRL was tested. Which peptide exchange yield did it give?
**A.** 20 to 50%

**Q.** GLDDAEYAL was tested. Which peptide exchange yield did it give?
**A.** 20 to 50%

**Q.** With GLDDLLLFL as the binder, how does the peptide exchange yield read?
**A.** 50 to 75%

**Q.** ALYLTEVFL was tested. Which peptide exchange yield did it give?
**A.** ≥ 75%

**Q.** How did the peptide exchange yield turn out when GLLESGRHYL was run?
**A.** 50 to 75%

**Q.** With GLQENLDVVV as the binder, how does the peptide exchange yield read?
**A.** ≥ 75%

**Q.** How did the peptide exchange yield turn out when GLVETELQL was run?
**A.** 50 to 75%

**Q.** How did the peptide exchange yield turn out when ILAGEMLSV was run?
**A.** 50 to 75%

**Q.** For ILARDILEI, which peptide exchange yield is on record?
**A.** 50 to 75%

**Q.** For ILGDILLKV, which peptide exchange yield is on record?
**A.** 50 to 75%

**Q.** For ILLGIQELL, which peptide exchange yield is on record?
**A.** 50 to 75%

**Q.** With ILPTLEKELFL as the binder, how does the peptide exchange yield read?
**A.** 50 to 75%

**Q.** Which peptide exchange yield does the source give for ILQALAVHL here?
**A.** 50 to 75%

**Q.** With KIMDYSLLLGV as the binder, how does the peptide exchange yield read?
**A.** ≥ 75%

**Q.** Which peptide exchange yield does the source give for AMAGDVVYA here?
**A.** 50 to 75%

**Q.** KLDETGVAL was tested. Which peptide exchange yield did it give?
**A.** 20 to 50%

**Q.** For KLKDRLPSI, which peptide exchange yield is on record?
**A.** 20 to 50%

**Q.** With KTVEPPISQV as the binder, how does the peptide exchange yield read?
**A.** 20 to 50%

**Q.** With LLPTGVFQV as the binder, how does the peptide exchange yield read?
**A.** 50 to 75%

**Q.** Which peptide exchange yield does the source give for LLVQEPDGLMV here?
**A.** 50 to 75%

**Q.** LLYDNVPGA was tested. Which peptide exchange yield did it give?
**A.** 50 to 75%

**Q.** Which peptide exchange yield does the source give for NLLDPGSSYLL here?
**A.** 50 to 75%

**Q.** NLWSVDGEVTV was tested. Which peptide exchange yield did it give?
**A.** 50 to 75%

**Q.** How did the peptide exchange yield turn out when QLIPKLIFL was run?
**A.** 50 to 75%

**Q.** YLFEEAISM was tested. Which peptide exchange yield did it give?
**A.** 50 to 75%

**Q.** With ATYSGLESQSV as the binder, how does the peptide exchange yield read?
**A.** 20 to 50%

**Q.** For QLLPVSNVVSV, which peptide exchange yield is on record?
**A.** 50 to 75%

**Q.** With RLDYITAEI as the binder, how does the peptide exchange yield read?
**A.** 50 to 75%

**Q.** With RLLDEQFAVL as the binder, how does the peptide exchange yield read?
**A.** 50 to 75%

**Q.** Which peptide exchange yield does the source give for SLDDVEGMSV here?
**A.** 50 to 75%

**Q.** Which peptide exchange yield does the source give for SLVEAQGWLV here?
**A.** 50 to 75%

**Q.** With SLWNAGTSV as the binder, how does the peptide exchange yield read?
**A.** 50 to 75%

**Q.** With SQWEDIHVV as the binder, how does the peptide exchange yield read?
**A.** 50 to 75%

**Q.** TILDYINVV was tested. Which peptide exchange yield did it give?
**A.** 50 to 75%

**Q.** TLLADDLEIKL was tested. Which peptide exchange yield did it give?
**A.** 50 to 75%

**Q.** How did the peptide exchange yield turn out when TLLDQLDTQL was run?
**A.** 20 to 50%

**Q.** AVLLVLPLV was tested. Which peptide exchange yield did it give?
**A.** 50 to 75%

**Q.** How did the peptide exchange yield turn out when TLLDWQDSL was run?
**A.** 50 to 75%

**Q.** Which peptide exchange yield does the source give for TLLQVFHLL here?
**A.** 50 to 75%

**Q.** With TLTDEQFLV as the binder, how does the peptide exchange yield read?
**A.** 20 to 50%

**Q.** For TVLPVPPLSV, which peptide exchange yield is on record?
**A.** 50 to 75%

**Q.** For VIRNIVEAA, which peptide exchange yield is on record?
**A.** 20 to 50%

**Q.** Which peptide exchange yield does the source give for VLDELPPLI here?
**A.** 50 to 75%

**Q.** VLGEYSYLL was tested. Which peptide exchange yield did it give?
**A.** 50 to 75%

**Q.** Which peptide exchange yield does the source give for VLLEYHIAYL here?
**A.** 50 to 75%

**Q.** Which peptide exchange yield does the source give for VLLFIEHSV here?
**A.** 50 to 75%

**Q.** Which peptide exchange yield does the source give for VLNDGAPNV here?
**A.** 50 to 75%

**Q.** For AVLGLVWLL, which peptide exchange yield is on record?
**A.** 50 to 75%

**Q.** Which peptide exchange yield does the source give for VMILKLPFL here?
**A.** 20 to 50%

**Q.** YLDDLLPKL was tested. Which peptide exchange yield did it give?
**A.** 50 to 75%

**Q.** How did the peptide exchange yield turn out when YMAPEVVEA was run?
**A.** 50 to 75%

**Q.** YTLDSLYWSV was tested. Which peptide exchange yield did it give?
**A.** 50 to 75%

**Q.** How did the peptide exchange yield turn out when NLLDDRGMTAL was run?
**A.** 50 to 75%

**Q.** How did the peptide exchange yield turn out when LLRDGIELV was run?
**A.** 50 to 75%

**Q.** How did the peptide exchange yield turn out when ILQPMDIHV was run?
**A.** 50 to 75%

**Q.** With LLSAAEPVPA as the binder, how does the peptide exchange yield read?
**A.** 20 to 50%

**Q.** Which peptide exchange yield does the source give for GVATAGCVNEV here?
**A.** ≥ 75%

**Q.** FLLEDLSQKL was tested. Which peptide exchange yield did it give?
**A.** 50 to 75%

**Q.** How did the peptide exchange yield turn out when AVLHLLLSV was run?
**A.** 20 to 50%
